According to article PMC4851077:

Tests used:
[1] = target: glucose oxidase (GOD, E.C. 1.1.3.4, type VII, MW ≈ 160,000) (UniProt P13006); assay: quartz crystal microbalance (QCM); layer-by-layer adsorption on Au/MPS/PDDA-coated quartz resonator; alternate immersion in Con A (1 mg/mL, pH 7.0) and GOD (1 mg/mL, pH 7.0) for 20 min each, 0.1 M Tris-HCl with 0.1 M NaCl, 1 mM MnCl2, 1 mM CaCl2; washed, dried, frequency measured in air
[2] = target: concanavalin A extracted from Jack beans (Con A, type V, MW ≈ 104,000) (Jack bean); assay: as above

average QCM frequency decrease for each layer [1] [Hz] | average QCM frequency decrease for each layer [2] [Hz] | Substance
82 | – | concanavalin A extracted from Jack beans (Con A, type V, MW ≈ 104,000) (natural protein)
– | 58 | glucose oxidase (GOD, E.C. 1.1.3.4, type VII, MW ≈ 160,000) (from UniProt P13006 17-605) (enzyme)
